# Reference: patent US20150359847A1, “METHOD AND COMPOSITION FOR CONFERRING NEUROPROTECTION” (BLOOD SYSTEMS RESEARCH INSTITUTE, priority 2014, published 2015)
# Tests used:
# [1] = system: phospho-Akt (Ser473) in hippocampal homogenates; experiment: Hippocampal phospho-Akt western blot 3 days post-TBI; assay type: in vivo, mouse
# Excerpt: The mouse controlled cortical impact (CCI) injury model was used as previously described. In brief, mice were anesthetized with 5% isoflurane and 1:1 O2:N2 mixture. Animals were mounted on a stereotaxic frame and were secured by ear bars and an incisor bar. Anesthesia was maintained with 2.0% isoflurane and 1:1 O2:N2 mixture. A 5-mm-diameter craniotomy was made midway between bregma and lambda on the right side, with the medial edge of the craniotomy 1 mm lateral to midline. Injury was produced using a magnetic impactor mounted at an angle of 110° from the vertical plane. A single impact at a velocity of 4+/−0.2 m/s was used inflict a moderate to severe injury (1.2-1.3 mm impact depth). After injury, the incision was closed. […] Core body temperature was monitored using a rectal thermometer and maintained at 36.8° C.-37.2° C. with a heating pad throughout the procedure. […]
# Cell lysates for western blotting were prepared with RIPA buffer (Cat#89900. Thermofisher Scientific, Rockford, Ill.) supplemented with phosphatase inhibitor cocktail 2 (Cat# P5726. Sigma, St Louis, Mo.), phosphatase inhibitor cocktail 3 (Cat# P0044. Sigma, St Louis, Mo.) and complete protease inhibitor (Cat#1862209. Thermofisher Scientific, Rockford, Ill.). […] Protein content was quantified with a Pierce BCA protein assay kit per manufacturer's instructions (Cat#23225. Thermofisher Scientific, Rockford, Ill.). […]
# SH-SY5Y cells = experiment: Hypoxia and MTT assay; assay type: cell-based, human; conditions: 5 hrs hypoxia + 18 hrs recovery; 1 hr pre-treatment with 1 ng/ml TIMP3
# Protocol: MTT Cell Viability & Proliferation Assay™ was purchased from ScienCell, (Cat#8028. Carlsbad, Calif.) and performed with modifications. In brief, 2×10^5 SH-SY5Y cells were plated per well of a 12 well plate and differentiated for 2 days. Pre-treatments were conducted 1 hr prior to initiation of hypoxia. Control cells underwent media exchange. For hypoxia, cultures were placed in a hypoxia incubator chamber (Cat#27310. StemCell technologies, Vancouver, BC) and purged of regular air using nitrogen gas for 5 mins at a flow rate of 20 L/min, after which both inlet and outlet values were closed and the chamber was placed inside a regular tissue culture incubator. The chamber was re-gassed after one hour again for 5 mins at a flow rate of 20 L/min. After the hypoxia period, tissue culture plates were removed from the chamber and placed back into a regular tissue culture incubator for 18 hrs. At the time of assay 50 μl of MTT Solution was added to each well and incubated for 1 hr at 37° C. After incubation, add 250 μl of MTT solubilization buffer was added and […] of each test sample was transferred to a well of a 96 well plate. The absorbance was then read using a Polarstar plate reader (BMG Labtech, Cary, N.C.) at a wavelength at 570 nm. Background subtraction was carried out with values from an average of 4 wells of solubilization buffer alone.
# [2] = system: p-AKT(Ser473) in primary hippocampal neurons; experiment: Akt (Ser473) phosphorylation in primary hippocampal neurons (antibody array, western blot); assay type: cell-based, mouse; conditions: 1 μg/ml TIMP3, 15 mins
# Protocol: (§1) SH-SY5Y cells were obtained from ATCC (Cat# CRL-2266, Manassas, Va.) and were cultured in DMEM and 10% FBS up to passage 10. For differentiation of SH-SY5Y cells into a neuronal phenotype, cells were first plated in DMEEM+10% FBS for 24 hrs before exchanging media in DMEM+1% FBS 10 μM retinoic acid. Differentiation was performed for 3 days before experimentation. Hippocampal neurons were prepared according to the protocol by Beaudoin et al. (Nature Protocols 2012; 7(9):1741-1754) with minor modifications. In brief, after trypsin digestion of hippocampi isolated from P1 mouse pups single cell suspensions was created by trituration and plated onto Biocoat™ poly-D-lysine coated 12-well plates (Cat#354470, BD Biosciences, San Jose, Calif.). […]
# Pathscan Antibody™ array kits were purchased from Cell Signaling Technologies (Danvers, Mass.). PathScan® RTK signaling antibody array kit (Fluorescent Readout, Cat#7949) and PathScan™ Akt signaling antibody array kit (Fluorescent Readout, Cat#9700) were performed as per manufacturer's instructions. Imaging was performed on a LI-COR Odyssey™ infrared scanner and pixel densities measured by in house LI-COR Image™ suite software. […]
# Lysates was analyzed in conjuncture with the LI-COR Odyssey™ infra-red imaging system. […] After further wash steps images were obtained using a LI-COR™ Odyssey scanner and quantified using LI-COR™ Image Studio software. […]
# [3] = system: S6 Ribosomal Protein (S235/236) in SH-SY5Y cells; experiment: S6 Ribosomal Protein (S235/236) phosphorylation in SH-SY5Y cells; assay type: cell-based, human; conditions: 1 μg/ml TIMP3, 15 mins
# Protocol: as §1, with “Calif.). 2 pups were used per well and cell suspensions were incubated for 10 minutes per well for a total of 6 wells. The serial incubation allowed for variation in cell densities applicable to different experiments but also contributed to the reduction in non-neuronal cells.” for “Calif.).”
# Pathscan Antibody™ array kits were purchased from Cell Signaling Technologies (Danvers, Mass.). PathScan® RTK signaling antibody array kit (Fluorescent Readout, Cat#7949) and PathScan™ Akt signaling antibody array kit (Fluorescent Readout, Cat#9700) were performed as per manufacturer's instructions. Imaging was performed on a LI-COR Odyssey™ infrared scanner and pixel densities measured by in house LI-COR Image™ suite software.
# Cell lysates for western blotting were prepared with RIPA buffer (Cat#89900. Thermofisher Scientific, Rockford, Ill.) supplemented with phosphatase inhibitor cocktail 2 (Cat# P5726. Sigma, St Louis, Mo.), phosphatase inhibitor cocktail 3 (Cat# P0044. Sigma, St Louis, Mo.) and complete protease inhibitor (Cat#1862209. Thermofisher Scientific, Rockford, Ill.). […] Protein content was quantified with a Pierce BCA protein assay kit per manufacturer's instructions (Cat#23225. Thermofisher Scientific, Rockford, Ill.).
# Lysates was analyzed in conjuncture with the LI-COR Odyssey™ infra-red imaging system. […]
molecule,measurement,setting,value
"TIMP3: Recombinant tissue inhibitor of matrix metalloproteinase-3, a soluble protein released by MSCs, obtained from Amgen Inc. (protein) CTCSPSHPQDAFCNSDIVIRAKVVGKKLVKEGPFGTLVYTIKQMKMYRGFTKMPHVQYIHTEASESLCGLKLEVNKYQYLLTGRVYDGKMYTGLCNFVERWDQLTLSQRKGLNYRYHLGCNCKIKSCYYLPCFVTSKNECLWTDMLSNFGYPGYQSKHYACIRQKGGYCSWYRGWAPPDKSIINATDP",phospho-Akt (Ser473) in ipsilateral hippocampal homogenates,"[1]; TIMP3 60 μg/kg IV x3, day 3, 1 hr after last injection, vs TBI alone",significantly elevates
same,Phospho-Akt (Ser473) in contralateral hippocampal homogenates,[1]; day 3,No differences were observed
same,SH-SY5Y cell viability by MTT after hypoxia,SH-SY5Y cells,prevents loss of cell viability
same,"p-AKT(Ser473), fluorescent antibody signaling array",[2],activates p-AKT(Ser^473)
same,"p-AKT(Ser473), western blot",[2],activates p-AKT(Ser^473)
same,"S6 Ribosomal Protein (S235/236) activation, western blot",[3],activates S6 Ribosomal Protein (S^235/236)
same,"S6 Ribosomal Protein (S235/236) phosphorylation, antibody array",[3],phosphorylates mTORC1 pathway target S6 Ribosomal Protein (S^235/236)
